This is an account of results in US20030186920A1.

Holding throughout (assay): cell-based or functional assay
Experiment [1] deals with bovine Flk-1 (VEGFR-2), endogenous on bovine aortic endothelial cells (BAEC) (bovine).
For experiment [2], the target named is T1, bovine Flt-1 (VEGFR-1), endogenous on bovine aortic endothelial cells (BAEC) (bovine).
T1 sequence: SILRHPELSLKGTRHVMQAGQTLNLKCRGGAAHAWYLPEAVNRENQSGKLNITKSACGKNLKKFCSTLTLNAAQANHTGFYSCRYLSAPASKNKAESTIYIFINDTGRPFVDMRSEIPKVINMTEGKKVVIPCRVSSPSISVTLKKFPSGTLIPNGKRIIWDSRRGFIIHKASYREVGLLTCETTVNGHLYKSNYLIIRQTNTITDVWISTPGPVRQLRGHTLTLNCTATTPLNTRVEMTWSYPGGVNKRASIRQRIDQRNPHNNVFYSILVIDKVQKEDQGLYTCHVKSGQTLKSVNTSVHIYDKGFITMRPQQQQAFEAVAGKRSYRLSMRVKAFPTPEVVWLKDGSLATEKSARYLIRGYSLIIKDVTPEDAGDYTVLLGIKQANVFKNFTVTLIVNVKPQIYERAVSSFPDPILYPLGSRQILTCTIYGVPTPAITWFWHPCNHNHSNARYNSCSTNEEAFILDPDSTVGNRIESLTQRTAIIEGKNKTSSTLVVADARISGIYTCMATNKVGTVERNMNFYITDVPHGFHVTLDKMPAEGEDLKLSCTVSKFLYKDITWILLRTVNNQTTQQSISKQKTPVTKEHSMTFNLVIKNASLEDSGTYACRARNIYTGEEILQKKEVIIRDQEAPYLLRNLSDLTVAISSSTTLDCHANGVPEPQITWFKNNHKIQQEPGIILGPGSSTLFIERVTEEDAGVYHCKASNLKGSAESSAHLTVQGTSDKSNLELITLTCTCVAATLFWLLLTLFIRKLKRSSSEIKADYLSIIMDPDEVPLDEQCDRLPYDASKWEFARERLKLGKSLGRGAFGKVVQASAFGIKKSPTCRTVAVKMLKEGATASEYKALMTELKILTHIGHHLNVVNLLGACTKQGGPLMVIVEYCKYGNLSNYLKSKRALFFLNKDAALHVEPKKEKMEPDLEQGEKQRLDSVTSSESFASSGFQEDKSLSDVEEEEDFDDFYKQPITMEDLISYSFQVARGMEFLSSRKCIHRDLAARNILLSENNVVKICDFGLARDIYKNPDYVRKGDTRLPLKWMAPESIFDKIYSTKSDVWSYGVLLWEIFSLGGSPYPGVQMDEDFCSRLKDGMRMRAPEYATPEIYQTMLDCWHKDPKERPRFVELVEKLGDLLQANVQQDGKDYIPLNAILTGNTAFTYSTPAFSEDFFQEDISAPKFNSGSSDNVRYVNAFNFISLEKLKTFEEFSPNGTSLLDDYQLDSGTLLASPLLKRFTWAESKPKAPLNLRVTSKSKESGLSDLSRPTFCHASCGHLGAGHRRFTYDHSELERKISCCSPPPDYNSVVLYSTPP

For experiment [3] the target is unchanged. The source holds these as a separate data set.

Turning to “human recombinant vascular growth factor, VEGF165 (PeproTech Inc.) (from UniProt P15692 27-191) (ligand)”, in experiment [1], the BAEC migration (modified Boyden chamber, 5 h), VEGF 2.5x10^-10 M (% increase over PBS-stimulated cells) came to 83; the BAEC migration (modified Boyden chamber, 5 h), VEGF 10^-9 M (% increase over PBS-stimulated cells) was 130; the BAEC migration (modified Boyden chamber, 5 h), VEGF 10^-10 M (% increase over PBS-stimulated cells) stood at 46; the BAEC proliferation (cell count at 72 h), VEGF 2.5x10^-10 M (% increase over DMEM/1% FBS) is 219. In experiment [1], this molecule had a BAEC proliferation (cell count at 72 h), VEGF 10^-10 M (% increase over DMEM/1% FBS) of 183; a BAEC proliferation (cell count at 72 h), VEGF 10^-11 M (% increase over DMEM/1% FBS) of 62; a Flk-1 phosphorylation in BAEC stimulated with VEGF (10^-9 M), anti-phosphotyrosine Western blot of immunoprecipitated receptor (fold over PBS-treated cells) of 13.2; a PAF synthesis by BAEC (3H-acetate incorporation, 15 min), VEGF 10^-8 M (fold over PBS-treated cells) of 35.9. Further, in experiment [1], the PAF synthesis by BAEC (3H-acetate incorporation, 15 min), VEGF 10^-9 M (fold over PBS-treated cells) amounted to 20.4 and the PAF synthesis by BAEC (3H-acetate incorporation, 15 min), VEGF 10^-10 M (fold over PBS-treated cells) amounted to 7.2. In experiment [2], this molecule had a Flt-1 phosphorylation in BAEC stimulated with VEGF (10^-9 M), anti-phosphotyrosine Western blot of immunoprecipitated receptor (fold over PBS-treated cells) of 1.5.

B1: human placenta growth factor, PlGF152 (R & D Systems) (ligand, UniProt P49763-3 19-170, looked up)
chain: LPAVPPQQWALSAGNGSSEVEVVPFQEVWGRSYCRALERLVDVVSEYPSEVEHMFSPSCVSLLRCTGCCGDENLHCVPVETANVTMQLLKIRSGDRPSYVELTFSQHVRCECRPLREKMKPERRRPKGRGKRRREKQRPTDCHLCGDAVPRR
B1 gave a PAF synthesis by BAEC (3H-acetate incorporation, 15 min), PlGF 10^-8 M (% increase over PBS-treated cells) in experiment [3] of 67.
